Test results: patent US20210338656A1, “IMMUNOSTIMULATORY AGENTS IN COMBINATION WITH ANGIOGENESIS INHIBITORS” (Alkermes Pharma Ireland Limited, priority 2020, published 2021)

B1: SEQ ID NO: 2: mouse ortholog construct (murine surrogate) of the circularly permuted IL-2/IL-2Rα fusion protein of SEQ ID NO: 1 (protein)
chain: SKSFQLEDAENFISNIRVTVVKLKGSDNTFECQFDDESATVVDFLRRWIAFCQSIISTSPQGGSSSTQQQQQHLEQLLMDLQELLSRMENYRNLKLPRMLTFKFYLPKQATELKDLQCLEDELGPLRHVLDLTQGSGGGSELCLYDPPEVPNATFKALSYKNGTILNCECKRGFRRLKELVYMRCLGNSWSSNCQCTSNSHDKSRKQVTAQLEHQKEQQTTTDMQKPTQSMHQENLTGHCREPPPWKHEDSKRIYHFVEGQSVHYECIPGYKALQRGPAISICKMKCGKTGWTQPQLTCVDGSHHHHHH
modifications: Mouse cpIL-2IL-2R-alpha

Legend:
[1] = system: MC38 murine colon carcinoma cells; assay: Anti-tumor efficacy in subcutaneous MC38 syngeneic tumor model (tumor growth, survival); assay type: in vivo, mouse; conditions: for tumor growth inhibition (TGI): Day 11; for tumor growth outcome (summary in words): treatment arm summaries
Description: The characteristics of each animal study group, the administration of the test articles and timing, the collection of samples and the overall study design are as shown in Tables 1 and 2:
(68-72° F.) and 40-60% humidity.
Additional aliquots were stored at 4° C. for use within 72 hours of formulation. Just prior to administration, dosing solutions were remixed with gentle inversion.
Group mean tumor volumes were plotted versus time. When an animal exited the study because of tumor size or TR death, its final recorded tumor volume was included with the data used to calculate the mean volume. Mean tumor volumes were calculated for a group until 50% of the animals had exited the study. Kaplan-Meier plots show the percentage of animals in each group remaining in the study versus time.

[2] = system: conventional CD4+ T cells, CD4+ Tregs, CD8+ T cells, macrophages, dendritic cells in tumors and spleens; assay: Flow cytometry of tumors and spleens of MC38 tumor-bearing mice, Day 10; assay type: in vivo, mouse
Description: On Day 10 spleens and tumors were collected and weighed from all animals in Groups 7 through 12 and weighed prior to processing. Tissues from four animals in each group were processed to single cell suspensions for flow cytometry analysis at CRL-NC (described below). Tissues from the remaining six animals in each group were preserved in RNAlater, stored at −80° C.
Mouse spleen samples were dissociated by gently grinding the tissue across fine mesh with RPMI-1640 media and lysing red blood cells with ACK (ammonium chloride potassium) buffer according to the manufacturer's instructions. Samples were centrifuged and washed twice with PBS.
Mouse tumor samples were dissociated according to the manufacturer's instructions using the gentleMACS™ “Tumor Dissociation Kit” protocol. Tumor samples were filtered through a 70 μm cell strainer and rinsed twice in PBS/2.5% FBS buffer to remove enzymatic buffer. Total tumor sample and plated well volumes were measured and recorded.
Total tissue volumes and Cellometer counts from each sample were recorded. Final single cell suspensions were prepared in PBS pH 7.4 at 2×10^7 cells/mL and held briefly on ice prior to flow cytometry analysis, including conventional CD4^+ T cells, CD4^+ Tregs, CD8^+ T cells, macrophages, and dendritic cells (as % CD45^+ and as cells/mg tissue).
Single cell suspensions were added into 96-well plates and stained for 30 minutes at 4° C. with 100 μL of the reconstituted Live/Dead Aqua (Life Technologies) following manufacturer's instructions. After two washes with 150 μL of Staining Buffer, Fc receptors were blocked using TruStain Fc (Biolegend) in 100 μL volume for five to ten minutes on ice prior to immunostaining. Cells were stained for 30 minutes at 37° C. with antibody panels as described in the protocol. Cells were washed twice with 150 μL of Staining Buffer and resuspended in […] Staining Buffer for analysis. For staining of internal markers such as FoxP3, cells were permeabilized with 200 μL of Transcription Factor Fixation/Permeabilization buffer (eBioscience) for 15 minutes at 4° C. according to manufacturer's instructions. After two washes with 150 μL of Permeabilization Buffer (eBioscience), internal marker staining was carried out using 0.1 μg of each antibody diluted in 100 μL of Permeabilization Buffer for 30 minutes at 4° C. protected from the light. Cells were washed twice with 150 μL of Permeabilization Buffer and resuspended in 100 μL of Staining Buffer. 100 μL of Staining Buffer containing Countbright beads were added to each sample. Isotype-control antibodies were used as negative staining controls when deemed necessary.
All data were collected on a FortessaLSR (BD) and analyzed with FlowJo software (version 10.0.7r2, Tree Star, Inc.). Cell populations were defined as described in the protocol, and the gating strategy was determined by initial gating on singlets (FSC-H vs. FSCA) and then live cells, based on Live/Dead Aqua viability staining.

Molecule	tumor growth inhibition (TGI) ([1]; lucitanib monotherapy 10 mg/kg p.o. daily)	median survival time ([1]; lucitanib monotherapy 10 mg/kg p.o. daily for 28 days, vehicle 15 days)	tumor growth outcome (summary in words) [1]	macrophages in spleens and tumors [2]	conventional CD4+ T cells in spleen ([2]; compared to vehicle)	tumor growth inhibition (TGI) ([1]; SEQ ID NO: 2 monotherapy 1.5 mg/kg s.c. once every 3 days)	tumor growth inhibition (TGI) ([1]; SEQ ID NO: 2 monotherapy 3 mg/kg s.c. once every 3 days)	median survival time ([1]; SEQ ID NO: 2 monotherapy 1.5 mg/kg s.c.)	median survival time ([1]; SEQ ID NO: 2 monotherapy 3 mg/kg s.c.)	complete response (number) ([1]; SEQ ID NO: 2 monotherapy arms)	durable complete tumor regressions ([1]; either dose (1.5 or 3 mg/kg) of SEQ ID NO: 2 monotherapy, groups pooled)	CD4+ Tregs in spleens [2]	CD8+ T cells in spleens and tumors [2]	Foxp3+ regulatory T cells (Tregs) [2]	dendritic cells in spleens and tumors [2]	numbers of conventional CD4+ T cells in tumors ([2]; compared to vehicle)	peripheral CD8+ T cell expansion ([2]; compared to vehicle)
CNC(=O)c1cccc2cc(Oc3ccnc4cc(OCC5(N)CC5)c(OC)cc34)ccc12 [Lucitanib, 6-(7-((1-Aminocyclopropyl)-methoxy)-6-methoxyquinolin-4-yloxy)-N-methyl-1-naphthamide]	100%	39 days	transient inhibition of tumor growth	decrease	increase												
B1			modest tumor growth inhibition	decrease	decreased	25%	51%	18 days	22 days	1	1/20	decrease	increase	without an increase	increase	neither treatment with SEQ ID NO: 2 nor the combination with lucitanib changed the numbers	significant peripheral CD8^+ T cell expansion
